Assay results from a protein production outcome set (Wang et al. 2014).

assay: label from the status in PepcDB records

Protein production, failed:
MFYRLLFASLWYILPAYVANASACIFGGGTPVDLGKNFIDGRRLIGNGVTYRGCIFGILCGTLVGLIQGILVDFNIFNSLDFYGTVLDHVILAFFLSVGAIVGDAVGSFIKRRLNIERGKPAPLLDQLDFVIGALAFGYIVAPIPYEMIIIICLFTVFVHLLGNIIAYKLGIKDVWW
MGAAKNIWALANAEDAANDAEQIPYSSFVVDTSLPLPLMIPRIIELCKDLFKNWGELDDSLFSVERVSGGITNLLLKVSVKEDTNKEVSVTVRLYGPNTEYVINREREILAIKYLSAAGFGAKLLGGFGNGMVQSFINARTLEPSDMREPKIAAQIARELGKFHKVDIPGSKEPQLWVDILKFYEKASTLTFEEPDKQKLFETISFEELHKEIIELREFTGLLNAPVVFAHNDLLSGNFMLNDEEEKLYLIDFEYGSYNYRGFDIGNHFNEYAGYDCDYSLYPSKEEQYHFIKHYLQPDKPDEVSIAEVESVFVETDAYKLASHLYWAIWAIIQARMSPIEFEYLGYFFLRYNEYKKQKPLTFSLVTSHLSASL
MGAAVGTSEAIQMVNQRQAVWVDVRPTEQFQAGHIAQARSLPAADLEKKAGALPKNKPLIVVCEQGRDAARIAARLRSQGFAEVSVLEGGMRAWFAAGLPVTQKGLEHHHHHH
MGAFNRRNKRVNNGNVTHLRPFRRNQLRNDNAYDPDEHDLEYVRPRRRGIYLLPNAFTTAALFAGFFAIVQAMNMRFDVAAIAIFAAMVLDGMDGRVARITNTQSAFGEQYDSLSDMTSFGVAPALVMYEWILHDLGKWGWIAAFVYCTCAALRLARFNANIGVVDKRFFQGLPSPAAAALVAGFVWLAIDNKLPVKELWMPWVAFGITLYAGLSMVSNAPFYSGKALDVRYRVPFGMMVLVLVLFVVVSSDPPVALFGLFVAYAISGYLLWAWRTLHGQRGGVDKSRAPGNGSGGN
MGALAAAMFDLRSRRENPGPESDPRKGRDRQRPSDARETKEDLKSQPDLRQVKEKVRNDEIAIQSESLVEYKERNQRRDDVLQVPELYDVLLPKLRVRIVFGSSFKPRKSTGRQWSMTQSWLKIKMNTNENEV
MGANEDQEMELEALRSIYEGDNSFRELSPVSFQYRIGEDGDPKAFLIEVSWTETYPQTAPVISMNAFFNNTISSAVKQSILAKLQEAVEVNLGTAMTYTLFEYAKDHKEQFMENHHPGNSATPVANIISVETPTTAPSSKKKEKKEQLSKAQKRKLADKTDHKGELPRGWNWVDVVKHLSKTGSKDDE
MGAQKKPAAAKVREDSEDLSRQRLQAILLADSFTTQFRSITLERPKVLLPIVNIPMIDYTLAWLESAGIEEVFVFCCAHSSQIIDYLKKSEWYTRPNPNLLVRTIVSHNSTSVGDALRYIYEQQTETSQIQGDFVLVSGDTVSNMPLADLIQQHRDRKKKDEKAIMTMVFKKQSRLGIGSDQLFVAVDPLTKQLLHYEECNSRGGDFCLDKSLLDSTVLCSDMQDCYIDICSPEVLSLFEDNFDYQHMRRHFVNGLLVDDIMGYKIFTHEIQSSCYAARIDNLRSYDTVSKDIIQRWTYPYVPNIDFSGNRPVKLGRRGIYRASDAVQSHTADVGASTVIGYGTKIGNGGKIYNSVIGNGCCIGSNVVIQGSYIWNNVTIEDGCEIRNAIVCDGVKVRAGAVLQPGVVLSFSVVVGRDFVVPAYSKVSLLQQPTTEDSDEELEYADSSSGTADHSSGLNNLQIESKASELGPDGAGYIWEICDSAHDEEWKHSVVPIPMDKLADITGAMDDDDIEDDIVVPPSGELKSDTDIINTDANDSYGDFEREVEEEFLSAVEKDNKADIVIPLINSHRLAYNMDSADCAGAVFYSMMRLAVKSPHNSATELYRNAMGVITKWKGVLGFYLKQTDAQIEVIMKFEEMCQESEELSPLFAKLLPFLYDKDVVQEDAILRWGEEKAGADDCDKVYLNKCESFIKWLKEASEEEEEDS
MGARTPPCGREIVRVLPSERLISGNGEGAPLPDSHSELPPVIRRTEFVAYALAGLLLIAVIGVLYFAKAFFLPVVMAVVAGTMLSPAASFLERRGVPRALGAVLIVTAVTTVVAFVVALIAVPAMEWSSRLPELGAQLKEKLHVFDRPLALWKELQTMVGGSEGLPSLPLPKAEWVQPTLEFLSPTFAEFLLFFATLILFIASWRDLRRALIMNFGDRDARLRTLRILNEIEVHLGNYLLTVTVINIGVGVATGIICAITGMPNPAGLGALAAALNFIPIIGPIAMFIVLIVVGLVAFPTLGGGLMAGLAFGGITFLEGHFVTPTIIGRRLSLNALAVFIALAFWTWLWGPMGAFLSSPLLIVGLILKEHLLPENSPQLPQA
MGASTFWIITIVFCIAIYFLDKFLRKKLNMPKGGFWGYKKHVNSLHKKLEIGLLFIYLITSFIFIFKFESINIAYVIFTYLGGTLILRALMEWKYDRESKEYIFSVIGVFTFIFMTSILFYFFPPAV
MGCVFTNFRLRRSQTPKAKTPMIFEKQDYQQECIYNIITLLDGFDFKRHDALNLKDCLNQFHAACEIPVKNVSGKLNVDVLMETGTGKTFTYLNLIFALHKAYGQNKFIIFVPRKAILESVKQNIRLTKDYFYLEFKRHLKTYTYEGVKSPSNIINHYIKNQDELSVLLLTNSAIDKEGNILNKNSENLFNTKSIFENIADLKPISIIDEPHLLKGEAFGKYFGKIGALYFRFGATFAKEKEHALSNVAFCLDSISAFRNYLVKQIRIHSVMQDAQSPFLLNADSKSAKIAFYKAGILKQITLSKGEDLGKINASFNGVSLVKTAKDKAYLSNGATLEKASYKLAQDEISALLEKAIDLHFEKEAFLFDQNIKALSLFFIPKIEDFRQIDNKGTPFIKTEFERLYKLKRASILARENLSPSYKEYLKRDFDESGNLRVHQGYFSGDSVALNKGKKESKKEDIEANDIKMILSEKEKLLSFQTPLRFIFSVWALQEGWDNPNIFTLIKLANSTSETSRHQQVGRGLRIAINQEGKRVTHGFLKGNDNAFYKINYLDMLVSGEEVGFIEGLQKEIEASSFIGGGNALDREDLAKLGLNEREINKLFVELENSNALEFDETNNAYKIIAPICETMQNNEERIKDFLSDEEYHAVLSAFKMAENPTNKRDQIINANQPQEKVKIRQNLAKEFKELWQTINAQSQLSYQNIQKTKLIESIAKAFNESHVSAEVIKFESKRYDPQTNRIITEQSSTLKIRDYANALQKEINALLLDFAKDERLPLKFTLELYNALNKEHFTNSPKKAFKLLKGIIKDKLHENLLSCVSYGFCQNAFSNTAFDKTDPLYCEDGSPKNEIEKHKIGKYKSAQTPSPNYLYETIIYDSKIEEEVSEEGVQTLEGKSIEVFAKLPKFKIPTPYKNYEPDFAYLLKDEKGAKIFFVCETKGYEKESDIPPDEKRKIEYAKKFFETLSQNLKNAKKEIRVVFATRINKQDLFNTLKNALKETP
MGDEHSLIPKQIGVVPSAGFLNVEVFERPCPEPNIQPWDIPYVHYPKPKTYSSSNGEIFSVKDRRANVSTIFETLDKVYNLDWLSSASKNECTSAVGLKWMLNQAEILARYKPLINTSLLIPDLKQVQEMTSKALAYFNTTRHIFLYYEDVVKNRTKLDDVQEFLKVPKLDLKSRQVKIHHGPLSQHVQNWEEVQKTLKGTGFENFLLEDYRR
MGDFIGSVWWMIVSLGVLVTFHEFGHFWVARRCGVKVLRFSVGFGKPLWMRRDRHGTEFVVAAIPLGGYVKMLDEREGDVHPAEQDQAFNRKTVWQRIAIVAAGPIANLLLCMAMLWAMFVVGKQDYSATVGRADGLAAEAGLTPGERIVRIDGRSVSSWSDASMQLTTAAMDRRDVRVLTASDTASSSEHTLRLSQLPVGFDERRVAALAGIGWQFMLQPPVIAEVVKGSVADGLLKPGDRIVAIDGQPIRSAEDIIPQVQALGAHGGPGMIEVARGEDRLALEIAPRKSPQGQWMIGVRPAAAPAPEYDSRQQYGLFAAVPAAIRETGRMTADSLGMMKRMLTGQASVKNISGPVTIARAANASAERGLDWFLYFLGLLSLSLAIINLMPIPILDGGHLLYYLIELIKGSPISERAMIAGQYVGLAALAGLMGLAFYNDILGLVPR
MGDSKGRVASAAVSLAEFLESCAGKWFSQRTSYRLGATQDWHQSDQTTLFVDFLAADAPELQALIAEQGLAIAALQSRWEATPQQPASTSLLVFLAEGDRLVHQRGDRCWQGRYQFEGDHRGLTLTTEQPDGQVEERFWFAHPNLRLRTSLIRDRTGLSRSSFYSEIRLGVKPPEPPAEV
MGEEATAVAAAGVRPELVREAEVSLLECKVCFERFGHWQQRRPRNLPCGHVVCLACVAALAHPRTLGLECPFCRRACRACDTSDCLPVLHLLELLGSTLHASPAALSAAPFAPGTLTCYHAFGGWGTLVNPTGLALCPKTGRVVVVHDGKRRVKIFDSGGGGAHQFGEKGDAAHDVKYPLDVAVTNDCHVVVTDAGDCSLKVFDFFGQIKLVVGKQFSLPWGVEITPHNGVLVTDAEAGTLHLLEADFPEGVLRRIERLQAHLCSPRGLAVSWLTGAIAVLEHPCAFGRTGCNNTRVKVFNSTMQLIGQVDSFGLNLLFPSKVTASAVTFDHQGNVIVADTSGPAIVCLGKPEEFPALKPIITHGLSRPVALAFTKENSLLVLDTASHSIKVFKVMEGNGG
MGEPNLQLSLLYVIAIFTSAILLSARMSLLITLLAVIAVIYQRFVGSLFDYNNLNTIGNSALLAFLFFVVHRIGQIAVQRFKLLEALTFHQSIELYQLQNINRYILEQIEEGYLVLDENYDIVVSNPAACSLLGIPPQFANEKYPLAKWHADLFEILKFGDLKEGDRFIFESRLSAYSINIKVQHLLVPQQTLTLLILQDAQQINQQAQQLKLAALGQLSASIAHEIRNPLAAIVQANELLKDSDPEQQNTLRHMIGKQTKRIDSIVQDTLGLARSERTHPIQIDVKHFIDTLLEEDLFDVKHSIQLKISDSSLKFLFDEKQLRQVMINLVRNALRHNATDSPYITINIHSQTNKIYIDVIDYGEGVSKRDISQLFKPFFSTEINGTGLGLYLSHSFCEANHAKLTYVEQKQGACFRIECPIIY

Protein production, not failed:
MFYPDPFDVIIIGGGHAGTEAAMAAARMGQQTLLLTHNIDTLGQMSCNPAIGGIGKGHLVKEVDALGGLMAKAIDQAGIQFRILNASKGPAVRATRAQADRVLYRQAVRTALENQPNLMIFQQAVEDLIVENDRVVGAVTQMGLKFRAKAVVLTVGTFLDGKIHIGLDNYSGGRAGDPPSIPLSRRLRELPLRVGRLKTGTPPRIDARTIDFSVLAQQHGDNPMPVFSFMGNASQHPQQVPCYITHTNEKTHDVIRSNLDRSPMYAGVIEGVGPRYCPSIEDKVMRFADRNQHQIFLEPEGLTSNEIYPNGISTSLPFDVQMQIVRSMQGMENAKIVRPGYAIEYDFFDPRDLKPTLESKFIQGLFFAGQINGTTGYEEAAAQGLLAGLNAARLSDDKEGWAPARSQAYLGVLVDDLCTLGTKEPYRMFTSRAEYRLMLREDNADLRLTEIGRELGLVDDERWARFNEKLENIERERQRLKSTWVTPSAEAAAEVNAHLTAPLSREASGEDLLRRPEMTYEKLTTLTPFAPALTDEQAAEQVEIQVKYEGYIARQQDEIEKQLRNENTLLPATLDYRQVSGLSNEVIAKLNDHKPASIGQASRISGVTPAAISILLVWLKKQGMLRRSA
MGAGQTPHPQLIWPALLKQQGCNELLPLRTNDDWQRFCADSKHLLQYGDKLVDSNFHCFVLEEDAHWHPAAPLPPEGLNDLIRAHCATLGHCCTSKMHLHSVMDAIDFLNALEG
MGAMHVLTLDLAPVTPKDAPLLHRVFHLSPSYFALIGMELPTLEDVVRDLQTLEVDPRRRAFLLFLGQEPVGYLDAKLGYPEAEDATLSLLLIREDHQGRGLGRQALERFAAGLDGVRRLYAVVYGHNPKAKAFFQAQGFRYVKDGGPTLTWYVRPL
